Measurements published in article PMC7870846, “Incorporation of sensing modalities into de novo designed fluorescence-activating proteins” (Nature Communications, 2021).

Test: Fluorescence intensity assays of mFAP variants
Type: biochemical
Settings: neutral pH, DFHBI
Experimental: To measure fluorescence intensities of the phenolate form of chromophores, fluorescence was measured on a Synergy Neo2 hybrid multi-mode reader (BioTek) in flat bottom, black polystyrene, non-binding surface 96-well microplates (Corning 3650). Fluorescence intensity was measured in triplicate by exciting at λex = 484 nm and measuring fluorescence emission at λem = 505 nm (or λem = 511 nm for clones harboring the W27 mutation) (Supplementary Fig. 1g, h). The W27 mutation redshifts the peak emission wavelength from λem = ~505 nm to λem = ~511 nm, presumably due to the W27 indole ring donating a hydrogen bond to the imidazolinone moiety of the deprotonated state of DFHBI, which stabilizes the chromophore conjugated π–electron system in the excited state causing the redshift in emission. Fifteen microliters of small-scale purified protein[49] was combined with 185 μL of Na2HPO4-citrate (pH 7.36) buffer supplemented with 150 mM NaCl and 108 nM DFHBI for a final concentration of 100 nM DFHBI. In measuring the excitation spectra from λem = 525 nm of each clone in triplicate (Supplementary Fig. 1i), 30.0 μL of large-scale purified protein[49] was combined with 170 μL of 25.0 mM Tris (pH 8.00) supplemented with 100 mM NaCl and 914 nM DFHBI for a final concentration of 7.77 μM protein and 777 nM DFHBI. In measuring the fluorescence intensity at λex = 484 nm and λem = 509 nm of each clone in triplicate (Supplementary Fig. 1j), 30.0 μL of large-scale purified protein[49] was combined with 170 μL of 25.0 mM Tris (pH 8.00) supplemented with 100 mM NaCl and 653 nM DFHBI for a final concentration of 5.55 μM protein and 555 nM DFHBI. In measuring fluorescence intensity at λex = 468 nm and λem = 530 nm of each clone in technical triplicate (Supplementary Fig. 1k), 24.0 μL of 35.4 µM large-scale purified protein[49] was combined with 1.00 μL of 1.25 µM DFHBI or 1.00 μL of 1.25 µM DFHBI-1T (Lucerna) (from […] chromophore stock solutions dissolved in 0.5% DMSO and 99.5% high-salt Tev cleavage buffer [25.0 mM Tris, 100 mM NaCl, pH 8.00]) for final concentrations of 34.0 μM protein and 50.0 nM chromophore. The mFAP9–DFHBI complex had ~1.1-fold the fluorescence intensity of the mFAP10–DFHBI complex, and the mFAP9–DFHBI-1T complex had ~0.75-fold the fluorescence intensity of the mFAP10–DFHBI-1T complex (Supplementary Fig. 1k). In collecting fluorescence emission spectra by exciting fluorescence at λex = 484 nm and collecting fluorescence emission at λem = 495–650 nm (Supplementary Fig. 6b), and in measuring fluorescence endpoints in techincal triplicate at unique peak excitation and emission wavelengths (Supplementary Fig. 6c), 195 μL of large-scale purified protein[49] was combined with 5.00 μL of 25 mM Tris (pH 8.00) supplemented with 100 mM NaCl and 40.0 μM DFHBI for a final concentration of 10.0 μM protein and 1.00 μM DFHBI.
In measuring fluorescence intensity of small-scale purified proteins[49] (Supplementary Table 1), wells were excited at λex = 488 nm for DFHBI and DFHBI-1T and λex = 505 nm for DFHO, and fluorescence emission measured at λem = 510 nm for DFHBI and DFHBI-1T and λem = 545 nm for DFHO. […]

B1: mFAP2b: mFAP2.5 with V67I, "b" for bright (protein)
chain: SRAAQLLPGTWQVTMTNEDGQTSQGQWHFQPRSPYTMDIVAQGTISDGRPIVGYGKATVKTPDTLDIDITYPSLGNIKAQGQITMDSPTQFKWDATTKGENDFHGRLTGTLQRQE
- brighter than mFAP2.4: ~ 1.3 fold
- brighter than mFAP2.5: ~ 1.2 fold
